Patent US20150098990A1

Legend:
[1] = biological target: mouse dorsal root ganglion (DRG) neurons (surface proteins that the peptides bind are not identified) (mouse (C57BL/6)); assay: phage binding to cultured DRG neurons, anti-fd immunostaining, confocal microscopy
[2] = biological target: mouse dorsal root ganglion (DRG) neurons (surface proteins that the peptides bind are not identified) (mouse (C57BL/6)); assay: double staining of isolated DRG neurons incubated with DRG-p1 and GST-DRG3, antibodies against phage and GST
[3] = biological target: mouse dorsal root ganglion (DRG) neurons (surface proteins that the peptides bind are not identified) (mouse (C57BL/6)); assay: synthetic peptide DRG1 at 10^-6 M; competitor phage DRG-p1 on cultured DRG neurons, anti-fd immunostaining
[4] = biological target: mouse dorsal root ganglion (DRG) neurons (surface proteins that the peptides bind are not identified) (mouse (C57BL/6)); assay: synthetic peptide DRG1 at 10^-4 M; competitor phage DRG-p1 on cultured DRG neurons, anti-fd immunostaining
[5] = biological target: mouse dorsal root ganglion (DRG) neurons (surface proteins that the peptides bind are not identified) (mouse (C57BL/6)); assay: synthetic peptide DRG3 at 10^-4 M; competitor phage DRG-p3 on cultured DRG neurons, anti-fd immunostaining
[6] = biological target: mouse dorsal root ganglion (DRG) neurons (surface proteins that the peptides bind are not identified) (mouse (C57BL/6)); assay: synthetic peptide DRG3 at 10^-6 M; competitor phage DRG-p3 on cultured DRG neurons, anti-fd immunostaining
[7] = biological target: mouse dorsal root ganglion (DRG) neurons (surface proteins that the peptides bind are not identified) (mouse (C57BL/6)); assay: synthetic peptide DRG2 at 10^-4 M; competitor phage DRG-p2 on cultured DRG neurons, anti-fd immunostaining
[8] = biological target: mouse dorsal root ganglion (DRG) neurons (surface proteins that the peptides bind are not identified) (mouse (C57BL/6)); assay: synthetic peptide DRG2 at 10^-6 M; competitor phage DRG-p2 on cultured DRG neurons, anti-fd immunostaining

phage clone DRG-p3 (M13 phage displaying the DRG3 peptide FGQKASS on pIII)
percent of DRG neurons bound [1]: 29%

phage clone DRG-p2 (M13 phage displaying the DRG2 peptide DGPWRKM on pIII)
percent of DRG neurons bound [1]: 43%

phage clone DRG-p1 (M13 phage displaying the DRG1 peptide SPGARAF on pIII)
percent of GST-DRG3-positive neurons with double positive staining [2]: 71%
percent of DRG neurons bound [1]: 38%

SPGARAF [synthetic peptide DRG1: SPGARAF]
percent of anti-phage staining blocked [3]: 47%
percent of anti-phage staining blocked [4]: 97%

FGQKASS [synthetic peptide DRG3: FGQKASS]
percent of anti-phage staining blocked [5]: 94%
percent of anti-phage staining blocked [6]: 53%

DGPWRKM [synthetic peptide DRG2: DGPWRKM]
percent of anti-phage staining blocked [7]: 94%
percent of anti-phage staining blocked [8]: 54%
